From patent publication US20140315251A1 (ZOETIS SERVICES, published 2014) come the findings set out here.

In assay [1] the target is T1, feline IL-31 full-length construct for E. coli expression (feline).
T1 construct: Purified from E. coli under denaturing conditions and dialysed; also called feline IL-31 protein
T1 chain: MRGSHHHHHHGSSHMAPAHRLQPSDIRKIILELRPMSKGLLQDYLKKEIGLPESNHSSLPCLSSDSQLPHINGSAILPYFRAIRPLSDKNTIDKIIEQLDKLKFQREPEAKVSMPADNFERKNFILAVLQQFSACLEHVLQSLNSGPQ
Briefly: Western blot under reducing conditions, purified protein from mammalian and E. coli sources.

Assay [2] addresses T1, feline IL-31 full-length construct for …. Put plainly: Western blot of purified IL-31 proteins.
The target in the next assay is T2, pET101D-lacZ protein (UniProt P00722 1-1024 = β-galactosidase, limits assumed).
T2 construct: Control lane on the truncation blots; also called beta-galactosidase (lacZ)
T2 sequence (P00722 whole entry, the tested form may be a part): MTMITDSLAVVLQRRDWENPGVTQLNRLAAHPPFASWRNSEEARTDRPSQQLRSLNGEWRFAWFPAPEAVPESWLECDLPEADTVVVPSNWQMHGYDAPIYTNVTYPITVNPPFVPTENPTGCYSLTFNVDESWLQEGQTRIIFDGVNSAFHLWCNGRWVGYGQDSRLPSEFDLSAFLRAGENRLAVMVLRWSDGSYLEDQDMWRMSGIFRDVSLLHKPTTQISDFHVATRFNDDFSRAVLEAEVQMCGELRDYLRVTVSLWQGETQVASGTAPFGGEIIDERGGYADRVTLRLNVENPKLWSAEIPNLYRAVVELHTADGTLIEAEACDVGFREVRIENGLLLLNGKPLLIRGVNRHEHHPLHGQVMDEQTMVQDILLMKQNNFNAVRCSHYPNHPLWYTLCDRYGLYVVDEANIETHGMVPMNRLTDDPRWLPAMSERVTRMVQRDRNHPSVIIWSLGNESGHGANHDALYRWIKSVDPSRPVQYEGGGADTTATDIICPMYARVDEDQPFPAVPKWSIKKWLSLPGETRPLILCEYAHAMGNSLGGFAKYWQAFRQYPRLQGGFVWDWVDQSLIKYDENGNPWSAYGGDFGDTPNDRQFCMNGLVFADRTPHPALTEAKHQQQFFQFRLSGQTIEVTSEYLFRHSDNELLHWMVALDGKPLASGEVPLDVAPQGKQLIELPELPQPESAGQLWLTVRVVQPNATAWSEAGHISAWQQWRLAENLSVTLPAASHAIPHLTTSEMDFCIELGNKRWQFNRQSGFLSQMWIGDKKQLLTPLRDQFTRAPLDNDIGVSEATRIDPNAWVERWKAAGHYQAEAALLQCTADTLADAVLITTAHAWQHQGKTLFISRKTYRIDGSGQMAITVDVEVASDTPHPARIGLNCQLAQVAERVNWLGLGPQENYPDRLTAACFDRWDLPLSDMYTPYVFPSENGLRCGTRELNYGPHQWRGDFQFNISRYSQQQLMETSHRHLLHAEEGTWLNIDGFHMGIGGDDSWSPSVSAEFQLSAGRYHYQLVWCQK
Briefly: Western blot of crude E. coli lysates. The protocol: (§1) It was observed that the full length IL-31 protein was expressed very poorly. […] Antibodies 11E12 and 34D03 all bound to the −20N protein. Therefore, further work was carried out using this −20 N construct. Constructs representing C-terminal truncations at positions 20-122 (MW 15.3 with his tag), 20-100 (MW 12.9 with his tag), and 20-80 (MW 10.4 with his tag), were made to assess mAb binding to these areas on the IL-31 protein. The amino acid and nucleotide sequences corresponding to the 20-122 construct are SEQ ID NOs: 63 and 64, respectively. The amino acid and nucleotide sequences corresponding to the 20-100 construct are SEQ ID NOs: 65 and 66, respectively. The amino acid and nucleotide sequences corresponding to the 20-80 construct are SEQ ID NOs: 67 and 68, respectively. […] This region corresponds to amino acid Nos. between amino acid residues 102 and 122 of the canine IL-31 full-length protein sequence of SEQ ID NO: 32. […] In addition, the pET101D-lacZ protein was used as a control to confirm the lack of non-specific binding of mAbs to host proteins.

Assay [3] deals with T3, canine IL-31 with triple alanine substitution (I81A, D82A, I85A) (canine).
T3 construct: Positions count on the full-length E. coli construct; also called triple mutation
Put plainly: Western blot of E. coli lysates. From the text:
(§2) To examine the impact of multiple mutations in the region of IL-31 important for binding to the 11E12 and 34D03 antibodies, expression plasmids were constructed with double (D82A, […]) and triple (I81A, D82A, I85A) alanine substitutions. E. coli lysates expressing canine IL-31 with these double and triple mutations in addition to the −20N control were blotted with 11E12 and 34D03 antibodies (FIG. 16). It is apparent that these three amino acids on canine IL-31 are involved with recognition of 11E12 and 34D03 as complete abrogation of binding is observed when these sites are changed to alanine. These three amino acids correspond to amino acid residues 103, 104 and 107 of the canine IL-31 full-length protein sequence of SEQ ID NO: 32.

Assay [4] addresses T4, canine IL-31 with double alanine substitution (D82A, I85A) (canine).
T4 construct: The -20N backbone is stated for the alanine scan and -20N was the control on this blot; also called double mutation
Briefly: Western blot of E. coli lysates.
Excerpt: as §2
(In general: In western blotting, separated proteins are transferred to a membrane and probed.)

In assay [5] the target is T5, canine IL-31 full-length construct for E. coli expression (canine).
T5 construct: also called canine IL-31 (E. coli)
T5 chain: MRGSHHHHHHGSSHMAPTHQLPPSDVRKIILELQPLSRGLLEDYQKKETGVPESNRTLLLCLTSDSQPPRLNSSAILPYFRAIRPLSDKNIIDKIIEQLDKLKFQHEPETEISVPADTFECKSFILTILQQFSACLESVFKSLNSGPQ
Put plainly: Western blot of purified IL-31 proteins.

Assay [6] has as its target T6, canine IL-31 -40N construct (canine).
T6 construct: Crude E. coli lysate on Western blot; also called N-terminal truncation -40N
Put plainly: Western blot of crude E. coli lysates. Here is the method:
as §1

The target of assay [7] is T7, canine IL-31 20-80 construct (canine).
T7 construct: The range counts on the full-length E. coli construct; also called C-terminal truncation at positions 20-80
T7 chain: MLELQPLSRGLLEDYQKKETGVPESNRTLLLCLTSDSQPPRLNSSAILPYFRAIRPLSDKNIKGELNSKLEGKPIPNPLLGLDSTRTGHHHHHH
Put plainly: Western blot of crude E. coli lysates. The protocol:
as §1

Assay [8] deals with T8, canine IL-31 -60N construct (canine).
T8 construct: Crude E. coli lysate on Western blot; also called N-terminal truncation -60N
Briefly: Western blot of crude E. coli lysates. Here is the method:
as §1

The target of assay [9] is T9, canine IL-31 20-100 construct (canine).
T9 construct: The range counts on the full-length E. coli construct; also called C-terminal truncation at positions 20-100
Put plainly: Western blot of crude E. coli lysates. The protocol:
as §1

In assay [10] the target is T10, canine IL-31 -20N construct (canine).
T10 construct: Crude E. coli lysate on Western blot; also called N-terminal truncation -20N; -20N protein
Briefly: Western blot of crude E. coli lysates. Here is the method: as §1

For assay [11], the target named is T11, canine IL-31 20-122 construct (canine).
T11 construct: also called C-terminal truncation at positions 20-122
T11 chain: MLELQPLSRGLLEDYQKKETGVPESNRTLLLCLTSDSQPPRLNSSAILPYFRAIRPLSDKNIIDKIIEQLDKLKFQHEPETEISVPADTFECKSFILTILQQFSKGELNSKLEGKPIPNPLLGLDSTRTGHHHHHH
Briefly: Western blot of crude E. coli lysates. Here is the method: as §1

B1: Felinized 34D03 (antibody, V domains shown)
VH: DVQLVESGGDLVKPGGSLRLTCVASGFTYSNYGMSWVRQAPGKGLQWVATISYGGSYTYYPDNIKGRFTISRDNAKNTLYLQMNSLKTEDTATYYCVRGYGYDTMDYWGQGTLVTVSS
VL: EIQMTQSPSSLSASPGDRVTITCKASQSVSFAGTGLMHWYQQKPGKVPKLLIYRASNLEAGVPSRFSGSGSGTDFTLTISSLEPEDAATYYCQQSREYPWTFGQGTKLEIKR
notes: Produced from HEK cells; also called feline 34D03; felinized antibody 34D03
For B1, the binding result in assay [1] was “binds”.

B2: Mouse 11E12 (antibody, V domains shown)
VH: QVQLQQSGAELVKPGASVKLSCKASGYTFKYYDINWVRQRPEQGLEWIGWIFPGDGGTKYNETFKGKATLTTDKSSSTAYMQLSRLTSEDSAVYFCARGGTSVIRDAMDYWGQGTSVTVSS
VL: DIVLTQSPASLAVSLGQRATISCRASESVDNYGISFMHWYQQKPGQPPKLLIYRASNLESGIPARFSGSGSRTDFTLTINPVETDDVATYYCQQSNKDPLTFGAGTKLELK
notes: Mouse hybridoma monoclonal; also called mAb 11E12; MU-11E12
On to B2, for which the binding result in assay [2] was “binds”; with pET101D-lacZ protein it was “no binding”.

B3: Mouse 34D03 (antibody, V domains shown)
VH: EVQLVESGGDLVKPGGSLKLSCAASGFSFSNYGMSWVRQTPDKRLEWVATISYGGSYTYYPDNIKGRFTISRDNAKNTLYLQMSSLKSEDTAMYYCVRGYGYDTMDYWGQGTSVTVSS
VL: DILLTQSPASLAVSLGQRAIISCKASQSVSFAGTGLMHWYQQKPGQQPKLLIYRASNLEAGVPTRFSGSGSRTDFTLNIHPVEEEDAATYFCQQSREYPWTFGGGTKLEIK
notes: Mouse hybridoma monoclonal; also called mAb 34D03; MU-34D03
As to B3, the binding result in assay [3] is “no binding”; in assay [4], “no binding”; in assay [2], “binds”; in [5], “binds”; in [6], “binds”; in assay [7], “no binding”. The binding result in assay [8] is on record as “binds”; with pET101D-lacZ protein it was “no binding”; in [9], “binds”; in assay [10], “binds”; in [11], “binds”.
